Where two headings read alike, the source gives them in different places. *1 amine or outer side, *2 acyl side, *3 side chain or, on linkers, in order; H or OH if unused. Where a SMILES comes first, the peptide text is derived from it. Bridges are numbered along the chain shown (N, C = ends). Where no end group is shown, it is not given here. [ ]: non-standard residue; d: D form. 4‑Aminomethyl‑phenylacetyl = 4-aminomethyl-phenylacetyl unit, its amine closes the lactam, O=C(Cc1ccc(CN[*:1])cc1)[*:2]; 2Nal = N[C@@H](Cc1ccc2ccccc2c1)C(=O)O; AEF = NCCOc1ccc(C[C@H](N)C(=O)O)cc1; X1 = O=C(Cc1ccc(CN[*:1])cc1)[*:2]; 3Pal = N[C@@H](Cc1cccnc1)C(=O)O; αMeL = CC(C)C[C@](C)(N)C(=O)O; β3hL = CC(C)C[C@H](N)CC(=O)O; 3Amb = NCc1cccc(C(=O)O)c1; Dab = NCC[C@H](N)C(=O)O
T1: human IL-23R (Homo sapiens, UniProt Q5VWK5)
T1 sequence (Q5VWK5 22-629): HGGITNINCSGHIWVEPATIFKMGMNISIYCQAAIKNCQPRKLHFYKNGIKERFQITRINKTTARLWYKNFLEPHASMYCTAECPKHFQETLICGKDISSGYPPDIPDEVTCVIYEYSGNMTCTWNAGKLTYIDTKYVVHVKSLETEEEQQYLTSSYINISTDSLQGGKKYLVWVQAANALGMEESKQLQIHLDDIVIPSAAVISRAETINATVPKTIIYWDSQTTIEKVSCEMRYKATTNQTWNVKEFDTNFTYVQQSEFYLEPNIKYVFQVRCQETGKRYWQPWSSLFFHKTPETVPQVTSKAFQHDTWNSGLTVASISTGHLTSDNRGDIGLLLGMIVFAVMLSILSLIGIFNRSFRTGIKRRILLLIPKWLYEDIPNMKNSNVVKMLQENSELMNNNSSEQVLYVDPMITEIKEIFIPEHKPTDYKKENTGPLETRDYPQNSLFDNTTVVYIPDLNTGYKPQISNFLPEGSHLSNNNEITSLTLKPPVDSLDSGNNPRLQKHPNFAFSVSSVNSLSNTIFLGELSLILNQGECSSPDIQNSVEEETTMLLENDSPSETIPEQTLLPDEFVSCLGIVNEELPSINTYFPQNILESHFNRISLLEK

T2: Nluc-IL23R fusion protein (human, UniProt Q5VWK5 22-629)
T2 construct: range 22-629; expressed with a secretion signal in HEK293 cells; used as crude membrane preparation; also called hIL-23R; human IL-23R; not shown: Nanoluc protein from the expression plasmid N1371 (Promega), N-terminal of IL-23R
T2 sequence (looked up): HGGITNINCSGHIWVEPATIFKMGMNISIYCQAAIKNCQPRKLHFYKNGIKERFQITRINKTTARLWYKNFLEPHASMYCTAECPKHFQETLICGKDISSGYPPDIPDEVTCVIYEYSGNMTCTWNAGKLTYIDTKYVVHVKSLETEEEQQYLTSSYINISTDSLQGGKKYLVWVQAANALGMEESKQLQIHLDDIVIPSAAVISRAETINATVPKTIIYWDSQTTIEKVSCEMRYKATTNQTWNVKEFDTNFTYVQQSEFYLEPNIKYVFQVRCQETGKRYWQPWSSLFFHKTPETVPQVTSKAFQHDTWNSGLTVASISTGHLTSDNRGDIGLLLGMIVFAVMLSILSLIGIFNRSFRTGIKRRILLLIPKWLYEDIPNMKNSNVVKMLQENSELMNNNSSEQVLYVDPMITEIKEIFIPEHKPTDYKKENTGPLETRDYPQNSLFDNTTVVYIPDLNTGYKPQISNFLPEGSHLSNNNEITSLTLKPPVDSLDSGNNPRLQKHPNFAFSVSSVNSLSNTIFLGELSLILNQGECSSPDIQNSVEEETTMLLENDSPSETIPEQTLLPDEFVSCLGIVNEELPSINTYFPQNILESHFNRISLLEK

T3: human IL-23R endogenously expressed on DB cells (human, UniProt Q5VWK5 24-629)
T3 sequence (looked up): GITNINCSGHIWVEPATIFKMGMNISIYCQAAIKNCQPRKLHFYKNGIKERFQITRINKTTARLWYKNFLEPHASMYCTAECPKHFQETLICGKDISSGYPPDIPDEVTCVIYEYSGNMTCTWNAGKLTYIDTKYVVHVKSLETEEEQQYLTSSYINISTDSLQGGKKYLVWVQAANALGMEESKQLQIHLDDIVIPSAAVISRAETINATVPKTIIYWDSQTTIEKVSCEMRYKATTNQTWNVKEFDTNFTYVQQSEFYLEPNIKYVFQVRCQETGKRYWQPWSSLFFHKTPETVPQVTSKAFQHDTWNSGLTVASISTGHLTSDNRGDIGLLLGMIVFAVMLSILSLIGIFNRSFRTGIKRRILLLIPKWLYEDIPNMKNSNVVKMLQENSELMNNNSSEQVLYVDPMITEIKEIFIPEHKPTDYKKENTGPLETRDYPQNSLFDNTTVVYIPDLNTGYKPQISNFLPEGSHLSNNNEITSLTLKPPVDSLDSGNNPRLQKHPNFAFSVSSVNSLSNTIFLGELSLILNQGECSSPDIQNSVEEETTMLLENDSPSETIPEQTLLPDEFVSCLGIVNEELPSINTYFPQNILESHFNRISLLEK


What was measured:
[1] = biological target: T1, human IL-23R; test: biochemical
Procedure, shortened: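 Membranes from HEK293 cells stably expressing Nluc-tagged human IL-23R were incubated 2 h at room temperature with test compound and a fluorophore-labelled tracer. After substrate addition, loss of BRET (TAMRA over luciferase emission) reported tracer displacement. A 4PL fit gave IC50 values.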

[2] = biological target: IL-23 mediated STAT3 signalling (Homo sapiens, UniProt Q5VWK5); test: Functional inhibition of IL-23 mediated STAT3 signalling (phospho-STAT3 Tyr705 MSD, DB cells); assay type: cell-based
Experimental: The ability of compounds to inhibit IL-23 mediated signalling was determined in the human-derived DB cell line (CRL-2289) (hereafter referred to as DB cells), which endogenously expresses the human IL-23R and human IL-12R β1 subunits. Upon binding of IL-23, the IL-23R forms a heterodimer signalling complex together with IL-12R β1, which through the JAK2/STAT3 pathway promotes phosphorylation of STAT3 to form phospho-STAT3. In the assay, the functional antagonism of IL-23 mediated phospho-STAT3 formation in DB cells by the compound is quantified using reagents capable of measuring the phosphorylation state of Tyr705 of STAT3 in the form of a phospho-STAT3 (Tyr705) MSD (Meso Scale Discovery) kit.
[…]. For compounds tested in this assay, the response was normalized relative to control values to calculate the IC50 and maximal inhibitory response from a concentration response curve of the compound in presence of a fixed concentration of human IL-23.
The assay procedure was as follows. DB cells were maintained in growth medium consisting of RPMI-1640 [Invitrogen 61870-010] supplemented with 10% V/V Foetal Bovine Serum (FBS) [(heat inactivated), Invitrogen 10270-106], and 1% V/V Penicillin-Streptomycin (Pen-Strep) Solution [Invitrogen 15140]. On the day of assay, cells were resuspended in Assay buffer consisting of RPMI-1640 [Invitrogen 61870-010] supplemented with 0.1 % w/V BSA [Sigma-Aldrich A9430] to a density of 7.5x10^6 cells/mL. Compounds to be tested for inhibition of hIL-23 mediated signalling were serially diluted in Assay buffer to 3X the final concentration. A solution of hIL-23 corresponding to 3X the EC80 of hIL-23 (1.7 nM) was also prepared in Assay buffer. To initiate the assay, 20 µL of DB cell suspension (corresponding to 150.000 cells/well) was added to the wells of a 96-well V-bottom Polypropylene plate [Corning 3363] followed by addition of 3X 20 µL of the diluted test compounds to separate wells. Following preincubation of the DB cells with inhibitor for 15 min in a cell incubator (37 °C, 5% CO2), 20 µL of the prepared 3X the EC80 of hIL-23 solution was added to each well and incubated for 90 min in a cell incubator (37 °C, 5% CO2). For some wells buffer only or IL-23 only corresponding to the EC80 was added to obtain readouts needed for normalization. To terminate the assay, the plate was spun at 1000 G for 5 min to pellet cells, the supernatant removed using an 8-channel manual pipette, and then added 50 µL/well Complete Lysis Buffer from the MSD STAT3 kit (Cat# K150SVD, Mesoscale) to the cell pellet. To completely lyse cells to release phospho-STAT3 for detection, the plate was shaken for 10 min at room temperature (500 rpm) sealed with aluminium foil and placed at -80 °C for a minimum of 15 min. Detection of the phospho-STAT3 level in the cell lysate from the individual wells was determined using the MSD STAT3 kit (Cat# K150SVD, Mesoscale) and read on a Meso QuickPlex SQ 120 plate reader (Mesoscale).
For data analysis raw data counts from the Meso QuickPlex SQ 120 plate reader were normalized relative to the response by the EC80 of hIL-23 alone (no compound added) and the buffer level. Compound potency (IC50) and maximal inhibitory response (% inhibition) were estimated by computer-aided curve fitting using a 4-parameter logistic (4PL) non-linear model. […]. Typically compounds with a low IC50 are desired. Typically compounds capable of completely inhibiting the IL23-induced response are desired. […]. Table 3-2: hIL-23 (pSTAT3) antagonist IC50 and % inhibition data

[3] = biological target: T2, Nluc-IL23R fusion protein; test: BRET competition vs TAMRA-labelled peptide, Nluc-IL23R membranes
[4] = biological target: T3, human IL-23R endogenously expressed on …; test: cell-based or functional assay
[5] = biological target: T2, Nluc-IL23R fusion protein; test: BRET competition vs TAMRA-labelled peptide, Nluc-IL23R membranes; remark: listed apart in the source
[6] = biological target: T2, Nluc-IL23R fusion protein; test: Ki from BRET competition (Cheng-Prusoff), Nluc-IL23R membranes

Molecule | % displacement (hIL-23R binding) [1] [%] | IC50 ([2]; Example 2 (Tables 2-1 to 2-4), read-out: IC50 (pSTAT3)) [nM] | IC50 [1] [nM] | IC50 ([2]; Table 3-2, EC80 of hIL-23, read-out: hIL-23 (pSTAT3) antagonist IC50) [nM] | IC50 [3] [nM] | hIL-23 (pSTAT3) antagonist % inhibition [4] [%] | hIL-23 (pSTAT3) antagonist IC50 [4] [nM] | % displacement (hIL-23R binding) [5] [%] | IC50 [5] [nM] | Ki [6] [nM]
CC(C)C[C@@H](CC(N)=O)NC(=O)[C@H](Cc1cccnc1)NC(=O)[C@H](CCN)NC(=O)[C@@H]1CCC(=O)NCc2ccc(cc2)CC(=O)N[C@@H](CO)C(=O)N[C@H]2CCC(=O)NCC[C@H](NC(=O)[C@H](CCC(N)=O)NC(=O)[C@H](Cc3c[nH]c4ccccc34)NC2=O)C(=O)N[C@@H](Cc2ccc(OCCN)cc2)C(=O)N[C@@H](Cc2ccc3ccccc3c2)C(=O)N[C@@](C)(CC(C)C)C(=O)N1 [Compound 11, [4-Aminomethyl-phenylacetyl](1c)*SE(2c)WQ[Dab](2c)[Y(2-aminoethoxy)][2-Nal][2-Me-Leu]E(1c)[Dab][3-(3-Pyridyl)-Ala][beta-hLeu]-[NH2]] ([X1]SEWQ[Dab][AEF][2Nal][αMeL]E[Dab][3Pal][β3hL]-NH2; lactam 3-6, N-10) | 103 | 0.68 | – | – | – | – | – | – | – | –
CC(C)C[C@]1(C)NC(=O)[C@H](Cc2ccc3ccccc3c2)NC(=O)[C@H](Cc2ccc(OCCN)cc2)NC(=O)[C@@H]2CCNC(=O)CC[C@H](NC(=O)[C@H](CO)NC(=O)Cc3ccc(cc3)CNC(=O)CC[C@@H](C(=O)NCC[C@H](N)C(=O)N[C@@](C)(Cc3cccnc3)C(N)=O)NC1=O)C(=O)N[C@@H](Cc1c[nH]c3ccccc13)C(=O)N[C@@H](CCC(N)=O)C(=O)N2 [Compound 15, [4-Aminomethyl-phenylacetyl](1c)*SE(2c)WQ[Dab](2c)[Y(2-aminoethoxy)][2-Nal][2-Me-Leu]E(1c)[Iso-Dab][2-Me-3-(3-Pyridyl)-Ala]-[NH2]] | 96 | – | 0.45 | 12 | – | – | – | – | – | –
[3Amb]SCWQC[AEF][2Nal][αMeL]E[dR]-NH2 (lactam N-10; bridge 3-6; not fully specified (bridges); printed as [(3-Aminomethyl)benzoyl](1c)*SC(2a)WQC(2a)[Y(2-aminoethoxy)][2-Nal][2-Me-Leu]E(1c)[{d}R]-[NH2], Y = Y(2-aminoethoxy), R = D-Arg) [Ref 41] | – | – | – | – | 2.8 | 99 | 29 | 110 | 2.8 | 2.31
[4‑Aminomethyl‑phenylacetyl]SCWQC[AEF][2Nal][αMeL]ES-NH2 (lactam (positions not given here); bridge 3-6; not fully specified (bridges); printed as [4-Aminomethyl-phenylacetyl](1c)*SC(2a)WQC(2a)[Y(2-aminoethoxy)][2-Nal][2-Me-Leu]E(1c)S-[NH2], Y = Y(2-aminoethoxy)) [Ref 81] | – | – | – | – | 0.39 | 95 | 21 | – | 0.39 | 0.318
[3Amb]SCWQCW[2Nal]LER-NH2 (lactam N-10; bridge 3-6; not fully specified (bridges); printed as [(3-Aminomethyl)benzoyl](1c)*SC(2a)WQC(2a)W[2-Nal]LE(1c)R-[NH2]) [Ref 37] | – | – | – | – | 12 | 89 | 45 | 103 | 12 | –
H-DESCWQCWWLKR-NH2 (lactam 2-11; bridge 4-7; not fully specified (bridges)) [Ref 4] | – | – | – | – | 180 | 87 | 850 | 100 | 180 | –
Ac-DESCWQCW[2Nal]LKR-NH2 (lactam 2-11; bridge 4-7; not fully specified (bridges); printed as [Ac]-DE(1c)SC(2a)WQC(2a)W[2-Nal]LK(1c)R-[NH2]) [Ref 17] | – | – | – | – | 87 | – | 370 | – | 87 | –
Ac-KSCWQCW[2Nal]LER-NH2 (lactam 1-10; bridge 3-6; not fully specified (bridges); printed as [Ac]-K(1c)SC(2a)WQC(2a)W[2-Nal]LE(1c)R-[NH2]) [Ref 18] | – | – | – | – | 3.5 | 97 | 18 | 103 | 3.5 | –

— EP4471049A1 (Zealand Pharma A/S, priority 2023, dated 2024)
